Experiments:
[1] = molecular target: rituximab (human monoclonal IgG1) (human); assay: SPR; rituximab covalently immobilised (NHS/EDC) on a CM5 chip, Biacore X100; Z3 flowed over in HBS-EP+ (10 mM HEPES, 150 mM NaCl, 3 mM EDTA, 0.005% Tween-20, pH 7.4); 1:1 Langmuir model; KD calculated as koff/kon
[2] = molecular target: rituximab (human monoclonal IgG1) (human); assay: ITC; Z3 titrated into rituximab in the sample cell; PBS, pH 7.4, 25 °C; MicroCal PEAQ-ITC; triplicate
[3] = molecular target: rituximab (human monoclonal IgG1) (human); assay: differential scanning fluorimetry; equimolar (1:1) mixture of rituximab and Z3 against rituximab alone; SYPRO orange, 20 mM Tris, pH 7.4
[4] = molecular target: linear Z3 (linear trimer of the Staphylococcus aureus protein A Z domain) (Staphylococcus aureus); assay: AUC; sedimentation velocity at 40,000 and 60,000 rpm, PBS (Dulbecco), 20 °C, 220 nm; molar mass transformation

Chain of rituximab (human monoclonal IgG1) (human) (heavy, as listed by the source, chain 1 of 2): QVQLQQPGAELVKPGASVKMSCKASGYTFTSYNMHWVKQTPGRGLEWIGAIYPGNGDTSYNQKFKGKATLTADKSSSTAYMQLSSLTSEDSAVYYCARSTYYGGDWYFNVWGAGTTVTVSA
Chain of rituximab (human monoclonal IgG1) (human) (light, as listed by the source, chain 2 of 2): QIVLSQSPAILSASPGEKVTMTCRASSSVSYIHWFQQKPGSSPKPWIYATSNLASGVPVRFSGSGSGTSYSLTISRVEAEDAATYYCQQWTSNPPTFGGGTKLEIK

| Substance | Kd [1] [nM] | koff [1] [s⁻¹] | kon [1] [M⁻¹ s⁻¹] | Kd [2] [nM] | dH [2] [kcal/mol] | stoichiometry N (IgG1 molecules per cyclic Z3 molecule) [2] | increase of the lower transition temperature of rituximab [3] [°C] | upward shift of the 81.3 °C transition of rituximab [3] [°C] | stoichiometry N (IgG1 molecules per linear Z3) [2] | stoichiometry N [4] |
| --- | --- | --- | --- | --- | --- | --- | --- | --- | --- | --- |
| cyclic Z3 (intein-cyclized trimer of the Staphylococcus aureus protein A Z domain) (designed binder) | 3.3 | 0.00073 | 220000 | 7.6 | -32.7 | 2.1 | 4.9 | 1.5 |  |  |
| linear Z3 (linear trimer of the Staphylococcus aureus protein A Z domain) (designed binder) | 2.9 | 0.00092 | 310000 | 2.8 | -33 |  | 4.9 | 3.3 | 1.9 | < 3 |
